The values below come from paper PMC12914668.

Test in all cases: fluorescence polarisation; fluorescence anisotropy; 5 nM OG488-labelled histone monomer held constant, ligase complex titrated; 20 mM Tris-HCl pH 7.5, 10 mM NaCl, 5% glycerol, 1 mM DTT; 25 °C, 1 to 2.5 h; BSA-coated black 96-well plates
Experiment [1] deals with Xenopus laevis histone H2A K119C, Oregon Green 488 labelled (Xenopus laevis).
In experiment [2] the target is Xenopus laevis histone H3, Oregon Green 488 labelled at C110 (Xenopus laevis) (UniProt P84233).
The target of experiment [3] is Xenopus laevis histone H4 V22C, Oregon Green 488 labelled (Xenopus laevis) (UniProt P62799).

Consider “ASB9-ELOB/C-CUL5-RBX2 (ASB9-CRL5), not neddylated (from UniProt Q96DX5 1-294; Q15370 1-118; Q15369 1-112; Q93034 1-780; Q9UBF6 1-113) (complex)”, for which the Kd in experiment [1] worked out at 341 nM; in experiment [2], 187 nM; in experiment [3], 79.7 nM.

In the case of “NEDD8-ASB9-ELOB/C-CUL5-RBX2 (neddylated ASB9-CRL5) (from UniProt Q96DX5 1-294; Q15370 1-118; Q15369 1-112; Q93034 1-780; Q9UBF6 1-113; Q15843 1-76) (complex)”, the Kd in experiment [2] was found to be 78.2 nM; in experiment [3] it was 48.4 nM.
